Values of other authors as cited in article PMC7106362.

Target: m157 (Murine cytomegalovirus) (UniProt A8E1S5)
Experiment: SPR

Ly49H (from UniProt Q60682)
Kd: 1000 nM
